Experimental data reported in patent US9441262B2, “MASP-2, a complement fixing enzyme, and uses for it” (Helion Biotech ApS, priority 1997, dated 2016).

Tested on: C4
Test: C4 converting activity on Western blot of MBL/MASP preparation (C4b deposition from human serum)
Assay type: biochemical
Details: blot incubated with human serum at 37° C., detection with anti-C4 antibody
Procedure: The C4 activating potentials of MASP-1 and MASP-2, and Clr and Cls, were compared. This was accomplished by separating a C1 preparation and an MBL/MASP preparation by SDS-PAGE followed by Western blotting. The blot was examined for C4 converting activity by incubation with human serum at 37° C., followed by detection of deposited C4b using anti-C4 antibodies.
C1 was purified by incubating IgG-coupled Sepharose beads with human serum at 4° C. The beads were washed and incubated at 37° C. for 30 minutes for activation of Clr and Cls. The beads were suspended in non-reducing sample buffer and, without boiling, subjected to SDS-PAGE, followed by blotting in the absence of SDS. A similar blot was made of an MBL preparation produced in the absence of enzyme inhibitors (The State Serum Institute, Copenhagen). Strips of the blots were incubated for 30 minutes at 37° C. with 1.10 (v/v) human MBL-deficient serum, depleted of Clq by fractionation on Biorex 70. The blots were developed with biotinylated F(ab)2 anti-C4 antibody followed by peroxidase-labelled streptavidin and luminescence reagent. Parallel blots were treated with a serine protease inhibitor (aminoethylbenzenesulfonyl fluoride), which was also present during incubation with serum. Other strips were directly developed with antibodies.

B1: MASP-2: mannan-binding lectin associated serine protease-2, polypeptide of SEQ ID NO:2 (protein, listed as Homo sapiens)
chain: MRLLTLLGLLCGSVATPLGPKWPEPVFGRLASPGFPGEYANDQERRWTLTAPPGYRLRLYFTHFDLELSHLCEYDFVKLSSGAKVLATLCGQESTDTERAPGKDTFYSLGSSLDITFRSDYSNEKPFTGFEAFYAAEDIDECQVAPGEAPTCDHHCHNHLGGFYCSCRAGYVLHRNKRTCSALCSGQVFTQRSGELSSPEYPRPYPKLSSCTYSISLEEGFSVILDFVESFDVETHPETLCPYEFLKIQTDREEHGPFCGKTLPHRIETKSNTVTITFVTDESGDHTGWKIHYTSTAQPCPYPMAPPNGHVSPVQAKYILKDSFSIFCETGYELLQGHLPLKSFTAVCQKDGSWDRPMPACSIVDCGPPDDLPSGRVEYITGPGVTTYKAVIQYSCEETFYTMKVNDGKYVCEADGFWTSSKGEKSLPVCEPVCGLSARTTGGRIYGGQKAKPGDFPWQVLILGGTTAAGALLYDNWVLTAAHAVYEQKHDASALDIRMGTLKRLSPHYTQAWSEAVFIHEGYTHDAGFDNDIALIKLNNKVVINSNITPICLPRKEAESFMRTDDIGTASGWGLTQRGFLARNLMYVDIPIVDHQKCTAAYEKPPYPRGSVTANMLCAGLESGGKDSCRGDSGGALVFLDSETERWFVGGIVSWGSMNCGEAGQYGVYTKVINYIPWIENIISDF
Q: With B1 as the molecule, how does the “C4 deposition at the position of the band” value read?
A: Its value is “C4 was deposited”.

B2: MASP-1: MBP-associated serine protease, similar in structure to Clr and Cls (protein)
chain: HTVELNNMFGQIQSPGYPDSYPSDSEVTWNITVPDGFRIKLYFMHFNLESSYLCEYDYVKVETEDQVLATFCGRETTDTEQTPGQEVVLSPGSFMSITFRSDFSNEERFTGFDAHYMAVDVDECKEREDEELSCDHYCHNYIGGYYCSCRFGYILHTDNRTCRVECSDNLFTQRTGVITSPDFPNPYPKSSECLYTIELEEGFMVNLQFEDIFDIEDHPEVPCPYDYIKIKVGPKVLGPFCGEKAPEPISTQSHSVLILFHSDNSGENRGWRLSYRAAGNEPELQPPVHGKIEPSQAKYFFKDQVLVSCDTGYKVLKDNVEMDTFQIECLKDGTWSNKIPTCKIVDCRAPGELEHGLITFSTRNNLTTYKSEIKYSCQEPYYKMLNNNTGIYTCSAQGVWMNKVLGRSLPTCLPVCGLPKFSRKLMARIFNGRPAQKGTTPWIAMLSHLNGQPFCGGSLLGSSWIVTAAHCLHQSLDPKDPTLRDSDLLSPSDFKIILGKHWRLRSDENEQHLGVKHTTLHPKYDPNTFENDVALVELLESPVLNAFVMPICLPEGPQQEGAMVIVSGWGKQFLQRFPETLMEIEIPIVDHSTCQKAYAPLKKKVTRDMICAGEKEGGKDACSGDSGGPMVTLNRERGQWYLVGTVSWGDDCGKKDRYGVYSYIHHNKDWIQRVTGVRN
Q: Which “C4 deposition at the position of the band” value does the source give for B2 here?
A: The value was “no C4 deposition was observed”.
